For series [1], the system named is CaStn1N;CaTen1 (Candida albicans;Candida albicans). In words: UV crosslinking. The note with it: reference; normalized to Ten1 adduct; single Iodo-dU; EMSA: 10 mM Tris-HCl pH 8.0, 2 mM MgCl2, 1 mM spermidine, 1 mM DTT, 10% glycerol, 22 C; UV crosslinking: 50 mM Hepes-NaOH pH 7.5, 10% glycerol, 30 mM ….
Series [2] relates to CaStn1N K98E/K170E;CaTen1 (Candida albicans;Candida albicans). In words: UV crosslinking. The note with it: single Iodo-dU; EMSA: 10 mM Tris-HCl pH 8.0, 2 mM MgCl2, 1 mM spermidine, 1 mM DTT, 10% glycerol, 22 C; UV crosslinking: 50 mM Hepes-NaOH pH 7.5, 10% glycerol, 30 mM ….
For series [3], the system named is Cdc13 (Candida glabrata). In words: competition. The note with it: labeled CgTELX1 7.5 nM, Cdc13 6 nM; EMSA: 10 mM Tris-HCl pH 8.0, 2 mM MgCl2, 1 mM spermidine, 1 mM DTT, 10% glycerol, 22 C; UV crosslinking: 50 mM Hepes-NaOH pH 7.5, 10% glycerol, 30 mM ….
Series [4] deals with Cdc13 (CST subunit);Stn1;Ten1 (Candida glabrata;Candida glabrata;Candida glabrata) (UniProt Q6FM89). In words: competition. The note with it: labeled CgTELX1 7.5 nM, CST 10 nM; EMSA: 10 mM Tris-HCl pH 8.0, 2 mM MgCl2, 1 mM spermidine, 1 mM DTT, 10% glycerol, 22 C; UV crosslinking: 50 mM Hepes-NaOH pH 7.5, 10% glycerol, 30 mM ….
The target of series [5] is SUMO-CgCdc13-FLAG fusion protein (Candida glabrata Cdc13) (Candida glabrata). In words: co-sedimentation; purified CST complex on a 15-30% glycerol gradient; fractions by Western with anti-SUMO (Cdc13, Stn1) and anti-GST (Ten1); 500 kDa fraction also in serial two fold dilutions with anti-SUMO.
Series [6] shares this target. Put plainly: Coomassie staining intensities of the subunits in SDS-PAGE against BSA standards; purified CST complex (M2 fractions); intensities assumed proportional to molecular weights.
The target is the same in series [7]. Put plainly: Western analysis of serial dilutions with anti-SUMO antibodies; serial three fold dilutions of the purified CST complex; SUMO tag present in both the Cdc13 and Stn1 fusions.
For series [8] the target is unchanged. In words: co-IP; extract of E. coli co-expressing SUMO-Cdc13-FG and HIS6-SUMO-Stn1 (CS) on M2 (anti-FLAG) resin; Coomassie and Western (anti-FLAG, anti-HIS6).

Where “and” joins values, the source holds several entries; their conditions need not be identical. Equal entries are not always repeated.

In the case of C. albicans telomere IdU oligo, in series [1], the binding signal (fraction of WT Stn1N crosslinking) was 1. In series [2], this substance came in with a binding signal (fold reduction vs WT) of 3.
“CGGTGTAAGGATGCACTTGAAACTCGGTGTAAGGATGCACTTGAAACT [LeTELX2]”: the binding signal (fold more competitor than CgTELX1) in series [3] and in series [4] was above 200 throughout.
Turning to “HIS6-SUMO-CgStn1 fusion protein (Candida glabrata Stn1) (natural protein)”, the stoichiometry N (Stn1 per Cdc13) was 2.5 in series [5]; 2 and 3 and 2.5 in series [6]; 2.5 in series [7]; 2 to 3 in series [8].
The term stoichiometry N denotes a count of units in the complex or per binding partner. “SUMO-CgCdc13-FLAG fusion protein (Candida glabrata Cdc13) (natural protein)” came in with a stoichiometry N in series [5] of 2.
Consider “TCTTTAGGGAGGTACTGATGTTCTTTAGGGAGGTACTGATGT [ClTELX2]”, for which the binding signal (fold more competitor than CgTELX1) in series [3] and in series [4] was 20 in each case.
For “TTAGGATCCATGAAAACTGAAGAAGGTAAACTGGTA [R1]”, the binding signal (fold more competitor than CgTELX1) in series [3] and in series [4] was above 200 throughout.

Source of the values: article PMC3536697.
